Source: patent US20190282704A1

Assays:
[1] = target: wildtype feline IL-31 (Feline_IL31_wildtype) (feline)
[2] = target: canine IL-31 (Canine_IL31) (canine); experiment: SPR (Biacore), immobilised IL-31, 1:1 fit
[3] = target: wildtype feline IL-31 (Feline_IL31_wildtype) (feline); experiment: SPR (Biacore), immobilised IL-31, 1:1 fit
[4] = target: feline IL-31 15H05 mutant (Feline_IL31_15H05 mutant) (feline); experiment: indirect ELISA, coated IL-31; also: test concentration or dose not given here
[5] = target: wildtype feline IL-31 (Feline_IL31_wildtype) (feline); experiment: indirect ELISA, coated IL-31; also: test concentration or dose not given here

wildtype feline IL-31 (Feline_IL31_wildtype) (feline), sequence (chain, as listed by the source limits assumed, form in doubt): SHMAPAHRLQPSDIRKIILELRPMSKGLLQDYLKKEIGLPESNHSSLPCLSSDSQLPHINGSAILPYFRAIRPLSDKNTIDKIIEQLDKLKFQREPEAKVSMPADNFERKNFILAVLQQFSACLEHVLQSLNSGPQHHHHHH
canine IL-31 (Canine_IL31) (canine), sequence (chain, as listed by the source limits assumed, form in doubt): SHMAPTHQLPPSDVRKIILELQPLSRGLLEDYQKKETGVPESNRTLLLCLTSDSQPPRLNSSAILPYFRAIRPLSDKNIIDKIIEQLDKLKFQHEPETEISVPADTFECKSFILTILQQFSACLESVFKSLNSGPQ
feline IL-31 15H05 mutant (Feline_IL31_15H05 mutant) (feline), sequence (chain, as listed by the source mutant limits assumed, form in doubt): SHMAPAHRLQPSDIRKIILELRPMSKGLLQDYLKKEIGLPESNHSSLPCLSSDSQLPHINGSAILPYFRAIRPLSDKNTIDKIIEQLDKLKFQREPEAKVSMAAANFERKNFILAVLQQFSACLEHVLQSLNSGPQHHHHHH

IC50, inhibition of feline IL-31-induced STAT3 phosphorylation, canine DH82 cells [1]	IC50, inhibition of feline IL-31-induced STAT3 phosphorylation, feline FCWF4 cells [1]	Kd [2]	koff [2]	kon [2]	Kd [3]	koff [3]	kon [3]	Binding (ELISA OD) [4]	Binding (ELISA OD) [5]	Binder
5.66 µg/mL	4.38 µg/mL	7.02 nM	0.000318 s⁻¹	45200 M⁻¹ s⁻¹	0.75 nM	0.000639 s⁻¹	852000 M⁻¹ s⁻¹	–	–	Feline 11E12 1.1 FW2 (antibody, V domains shown) VH: QVLLVQSGAEVKKPGASVKIFCKASGYSFTYYDINWLRQAPEQGLEWMGWIFPGDGGTKYNETFKGRLTLTADTSTNTVYMELSSLRSADTAMYYCARGGTSVIRDAMDYWGQGALVTVSS VL: EIQMTQSPSSLSASPGDRVTITCRASESVDNYGISFMHWYQQKPGQPPKLLIYRASNLESGVPSRFSGSGSGTDFTLTISSLEPEDAATYYCQQSNKDPLTFGQGT
–	–	–	–	–	–	–	–	0.92 OD	1.89 OD	ZIL1 (antibody, V domains shown) VH: EVQLVESGGDLVKPGGSLRLSCVASGFTFSSYGMSWVRQAPGKGLQWVAHINSGGSSTYYADAVKGRFTISRDNAKNTLYLQMNSLRAEDTAVYYCVEVYTTLAAFWTDNFDYWGQGTLVTVSS VL: QSVLTQPTSVSGSLGQRVTISCSGSTNNIGILAATWYQQLPGKAPKVLVYSDGNRPSGVPDRFSGSKSGNSATLTITGLQAEDEADYYCQSFDTTLDAYVFGSGTQLTVLR
–	–	0.204 nM	6.04e-06 s⁻¹	29700 M⁻¹ s⁻¹	12.6 nM	0.00166 s⁻¹	132000 M⁻¹ s⁻¹	–	–	Feline 15H05 3.2 (antibody, V domains shown) VH: QVLLVQSGAEVRKPGASVKIFCKASGYSFTSYTIHWLRQAPEQGLEWMGNINPTSGYTENNQRFKDRLTLTADTSTNTAYMELSSLRSADTAMYYCARWGFKYDGEWSFDVWGAGTTVTVSS VL: EITMTQSPGSLAGSPGQQVTMNCRASQGISIWLSWYQQKPGQHPKLLIYKASNLHIGVPDRFSGSGSGTDFTLTISNLQAEDVASYYCLQSQTYPLTFGGGTKLEIK

The remaining lines, values behind:

Binder	IC50, inhibition of feline IL-31-induced STAT3 phosphorylation, canine DH82 cells [1]	IC50, inhibition of feline IL-31-induced STAT3 phosphorylation, feline FCWF4 cells [1]	Kd [2]	koff [2]	kon [2]	Kd [3]	koff [3]	kon [3]	Binding (ELISA OD) [4]	Binding (ELISA OD) [5]
Feline 11E12 1.2 (antibody, V domains shown) VH: QVLLVQSGAEVKKPGASVKIFCKASGYSFTYYDINWLRQAPEQGLEWMGWIFPGDGGTKYNETFKGRLTLTADTSTNTVYMELSSLRSADTAMYYCARGGTSVIRDAMDYWGQGALVTVSS VL: EVVLTQSSAFLSRTLKEKATITCRASESVDNYGISFMHWYQQKPNQAPKLLVKRASNLESGAPSRFSGSGSGTDFTLTISSPEPEDAATYYCQQSNKDPLTFGQGT	> 100 µg/mL	> 100 µg/mL	–	–	–	–	–	–	–	–
ZIL9 (antibody, V domains shown) VH: EVQLVESGGDLVKPPGSLRLSCVASGFTFSSYDMTWVRQAPGKGLQWVADVNSGGTGTAYAVAVKGRFTISRDNAKKTLYLQMNSLRAEDTAVYYCAKLGVRDGLSVWGQGTLVTVSS VL: SSVLTQPPSVSVSLGQTATISCSGESLNEYYTQWFQQKAGQAPVLVIYRDTERPSGIPDRFSGSSSGNTHTLTISGARAEDEADYYCESAVDTGTLVFGGGTHLAVLR	–	–	–	–	–	–	–	–	0.73 OD	1.8 OD
mouse: feline 11E12 chimera (antibody) heavy: QVQLQQSGAELVKPGASVKLSCKASGYTFKYYDINWVRQRPEQGLEWIGWIFPGDGGTKYNETFKGKATLTTDKSSSTAYMQLSRLTSEDSAVYFCARGGTSVIRDAMDYWGQGTSVTVSSASTTAPSVFPLAPSCGTTSGATVALACLVLGYFPEPVTVSWNSGALTSGVHTFPAVLQASGLYSLSSMVTVPSSRWLSDTFTCNVAHPPSNTKVDKTVRKTDHPPGPKPCDCPKCPPPEAAGAPSIFIFPPKPKDTLSISRTPEVTCLVVDLGPDDSDVQITWFVDNTQVYTAKTSPREEQFNSTYRVVSVLPILHQDWLKGKEFKCKVNSKSLPSPIERTISKAKGQPHEPQVYVLPPAQEELSRNKVSVTCLIKSFHPPDIAVEWEITGQPEPENNYRTTPPQLDSDGTYFVYSKLSVDRSHWQRGNTYTCSVSHEALHSHHTQKSLTQSPGK light: DIVLTQSPASLAVSLGQRATISCRASESVDNYGISFMHWYQQKPGQPPKLLIYRASNLESGIPARFSGSGSRTDFTLTINPVETDDVATYYCQQSNKDPLTFGAGTKLELKRSDAQPSVFLFQPSLDELHTGSASIVCILNDFYPKEVNVKWKVDGVVQNKGIQESTTEQNSKDSTYSLSSTLTMSSTEYQSHEKFSCEVTHKSLASTLVKSFQRSECQRE	4.4 µg/mL	3.45 µg/mL	0.000127 nM	8.7e-08 s⁻¹	684000 M⁻¹ s⁻¹	0.13 nM	5.06e-05 s⁻¹	388000 M⁻¹ s⁻¹	–	–
ZTS-927 (antibody) heavy: QVLLVQSGAEVRTPGASVKIFCKASGYSFTSYTIHWLRQAPAQGLEWMGNINPTSGYTENNQRFKDRLTLTADTSTNTAYMELSSLRSADTAMYYCARWGFKYDGEWSFDVWGAGTTVTVSSASTTAPSVFPLAPSCGTTSGATVALACLVLGYFPEPVTVSWNSGALTSGVHTFPAVLQASGLYSLSSMVTVPSSRWLSDTFTCNVAHPPSNTKVDKTVRKTDHPPGPKPCDCPKCPPPEMLGGPSIFIFPPKPKDTLSISRTPEVTCLVVDLGPDDSDVQITWFVDNTQVYTAKTSPREEQFNSTYRVVSVLPILHQDWLKGKEFKCKVNSKSLPSPIERTISKAKGQPHEPQVYVLPPAQEELSRNKVSVTCLIKSFHPPDIAVEWEITGQPEPENNYRTTPPQLDSDGTYFVYSKLSVDRSHWQRGNTYTCSVSHEALHSHHTQKSLTQSPGK light: EIQMTQSPSSLSASPGDRVTITCRASQGISIWLSWYQQKPGNIPKVLINKASNLHIGVPSRFSGSGSGTDFTLTISSLEPEDAATYYCLQSQTYPLTFGGGTKLEIKRSDAQPSVFLFQPSLDELHTGSASIVCILNDFYPKEVNVKWKVDGVVQNKGIQESTTEQNSKDSTYSLSSTLTMSSTEYQSHEKFSCEVTHKSLASTLVKSFQRSECQRE	1.57 µg/mL	5.26 µg/mL	–	–	–	0.614 nM	2.3e-05 s⁻¹	37400 M⁻¹ s⁻¹	–	–
ZIL69 (antibody, V domains shown) VH: EVQLVESGGDLVKPAGSLRLSCVASGFTFSSYAMKWVRQAPGKGLQWVATINNDGTRTGYADAVRGRFTISKDNAKNTLYLQMDSLRADDTAVYYCTKGNAESGCTGDHCPPYWGQGTLVTVSS VL: SSVLTQPPSVSVSLGQTATISCSGESLNKYYAQWFQQKAGQAPVLVIYKDTERPSGIPDRFSGSSAGNTHTLTISGARAEDEADYYCESAVSSETNVFGSGTQLTVLR	–	–	–	–	–	–	–	–	0.92 OD	1.48 OD
mouse: canine 11E12 chimera (antibody) heavy: QVQLQQSGAELVKPGASVKLSCKASGYTFKYYDINWVRQRPEQGLEWIGWIFPGDGGTKYNETFKGKATLTTDKSSSTAYMQLSRLTSEDSAVYFCARGGTSVIRDAMDYWGQGTSVTVSSASTTAPSVFPLAPSCGSTSGSTVALACLVSGYFPEPVTVSWNSGSLTSGVHTFPSVLQSSGLYSLSSMVTVPSSRWPSETFTCNVAHPASKTKVDKPVPKRENGRVPRPPDCPKCPAPEMLGGPSVFIFPPKPKDTLLIARTPEVTCVVVDLDPEDPEVQISWFVDGKQMQTAKTQPREEQFNGTYRVVSVLPIGHQDWLKGKQFTCKVNNKALPSPIERTISKARGQAHQPSVYVLPPSREELSKNTVSLTCLIKDFFPPDIDVEWQSNGQQEPESKYRTTPPQLDEDGSYFLYSKLSVDKSRWQRGDTFICAVMHEALHNHYTQESLSHSPGK light: DIVLTQSPASLAVSLGQRATISCRASESVDNYGISFMHWYQQKPGQPPKLLIYRASNLESGIPARFSGSGSRTDFTLTINPVETDDVATYYCQQSNKDPLTFGAGTKLELKRNDAQPAVYLFQPSPDQLHTGSASVVCLLNSFYPKDINVKWKVDGVIQDTGIQESVTEQDKDSTYSLSSTLTMSSTEYLSHELYSCEITHKSLPSTLIKSFQRSEC	–	1.15 µg/mL	0.000826 nM	6.55e-07 s⁻¹	793000 M⁻¹ s⁻¹	0.248 nM	0.000108 s⁻¹	437000 M⁻¹ s⁻¹	–	–
